Assay results published in article PMC2586972 (Structure (London, England : 1993), 2008).

Assays:
Gα13 = biological target: T1, Gα13 (Mus musculus, UniProt P27601); test: ITC
T1 chain: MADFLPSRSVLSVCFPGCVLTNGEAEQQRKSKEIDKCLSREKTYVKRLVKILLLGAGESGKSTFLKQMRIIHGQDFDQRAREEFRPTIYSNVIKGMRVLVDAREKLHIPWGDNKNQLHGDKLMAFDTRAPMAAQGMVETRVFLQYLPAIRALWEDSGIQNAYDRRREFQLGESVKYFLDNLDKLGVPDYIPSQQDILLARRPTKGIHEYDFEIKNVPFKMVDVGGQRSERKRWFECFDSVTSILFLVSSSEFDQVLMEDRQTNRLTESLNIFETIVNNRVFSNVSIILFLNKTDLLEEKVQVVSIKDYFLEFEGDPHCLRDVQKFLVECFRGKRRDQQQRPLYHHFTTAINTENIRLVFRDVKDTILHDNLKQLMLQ

[1] = biological target: T2, N-terminally truncated Gα13(Q226L), GDP-bound (mouse, UniProt P27601 41-377, Q226L); test: crystal structure
T2 sequence (looked up): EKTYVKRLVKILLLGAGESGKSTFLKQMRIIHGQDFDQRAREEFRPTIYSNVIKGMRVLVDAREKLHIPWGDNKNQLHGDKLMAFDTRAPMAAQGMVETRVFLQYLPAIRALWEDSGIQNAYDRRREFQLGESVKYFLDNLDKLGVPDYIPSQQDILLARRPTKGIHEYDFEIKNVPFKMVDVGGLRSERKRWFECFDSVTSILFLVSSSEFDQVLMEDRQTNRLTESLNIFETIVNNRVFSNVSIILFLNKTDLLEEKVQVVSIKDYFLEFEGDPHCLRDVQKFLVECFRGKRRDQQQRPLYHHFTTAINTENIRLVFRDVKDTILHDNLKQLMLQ

B1: PDZRhoGEF rgRGS (protein)
chain: ESDIIFQDLEKLKSRPAHLGVFLRYIFSQADPSPLLFYLCAEVYQQASPKDSRSLGKDIWNIFLEKNAPLRVKIPEMLQAEIDSRLRNSEDARGVLCEAQEAAMPEIQEQIHDYRTKRTLGLGSLYGENDLLDLDGDPLRERQVAEKQLAALGDILSKYEEDRSAPMDFALNTYMSHAGIR
modifications: GDP·AlF-bound Gα13
B1 gave a Kd (Gα13) of ~500 nM.

B2: PDZRhoGEF rgRGS (protein)
chain: ESDIIFQDLEKLKSRPAHLGVFLRYIFSQADPSPLLFYLCAEVYQQASPKDSRSLGKDIWNIFLEKNAPLRVKIPEMLQAEIDSRLRNSEDARGVLCEAQEAAMPEIQEQIHDYRTKRTLGLGSLYGENDLLDLDGDPLRERQVAEKQLAALGDILSKYEEDRSAPMDFALNTYMSHAGIR
modifications: GTPγS-bound Gα13
B2 gave a Kd (Gα13) of ~300 nM.

B3: rgRGS domain of PDZRhoGEF/GTRAP48 (residues 307–508) (domain or fragment, rat, UniProt Q9ES67 307-508, looked up)
chain: LIIGPEEDYDPGYFNNESDIIFQDLEKLKSHPAYLVVFLRYILSQADPGPLLFYLCSEVYQQTNPKDSRSLGKDIWNIFLEKNAPLRVKIPEMLQAEIDLRLRNNEDPRNVLCEAQEAVMLEIQEQINDYRSKRTLGLGSLYGENDLLGLDGDPLRERQMAEKQLAALGDILSKYEEDRSAPMDFAVNTFMSHAGIRLRESR
B3: binds [1].
